Results on two molecules are retold here after patent US20150344570A1 (published 2015).

One assay deals with T1, FcgRIIa R (human, UniProt P12318 34-217).
T1 construct: extracellular domain; also called FcγRIIa R; FcγRIIa type R
T1 sequence (looked up): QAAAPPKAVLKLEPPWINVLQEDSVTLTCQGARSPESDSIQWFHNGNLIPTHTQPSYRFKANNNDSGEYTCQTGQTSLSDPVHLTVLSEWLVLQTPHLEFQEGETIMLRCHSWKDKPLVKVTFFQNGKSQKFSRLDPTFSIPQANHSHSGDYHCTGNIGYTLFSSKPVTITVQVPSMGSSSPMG
Nature of the assay: SPR (Biacore), antibody captured, FcgR as analyte. On the procedure:
(§1) Analysis of interaction between objective antibody and the FcγR was carried out using Biacore T100 (GE Healthcare), Biacore T200, Biacore A100, and Biacore 4000. HBS-EP+ (GE Healthcare) was used as the running buffer, and the measurement temperature was set to 25° C. Chips produced by immobilizing the antigen peptide by the amine coupling method to a Series S sensor Chip CM5 (GE Healthcare), chips produced by allowing preliminarily biotinylated antigen peptides to interact with and immobilize onto a Series S Sensor Chip SA (certified) (GE Healthcare), chips produced by immobilizing Protein L (ACTIGEN, BioVision) to Series S Sencor Chip CM5 (GE Healthcare), or chips produced by immobilizing Protein A/G (Thermo Scientific) to Series S Sencor Chip CM5 (GE Healthcare) were used. Antibodies of interest were captured onto these chips, and allowed to interact to each FcγR diluted with running buffer. To regenerate and repeatedly use the chip, the antibodies captured onto the chip were washed off by reacting 10 mM glycine-HCl, pH 1.5.
In general terms: In SPR one partner is held on a chip, and binding of the other changes the refractive index at the surface.

For assay [1], the target named is T2, FcgRIIb (human, UniProt P31994 43-217).
T2 construct: extracellular domain; also called FcγRIIb; CD32B
T2 sequence (looked up): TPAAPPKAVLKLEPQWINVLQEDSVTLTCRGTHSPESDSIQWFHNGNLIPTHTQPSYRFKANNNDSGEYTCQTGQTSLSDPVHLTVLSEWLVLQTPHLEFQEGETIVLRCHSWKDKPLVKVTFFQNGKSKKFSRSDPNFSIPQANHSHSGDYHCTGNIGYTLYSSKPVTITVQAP
As to the kind of experiment: SPR (Biacore), antibody captured, FcgR as analyte. On the procedure:
as §1

The target in another assay is T3, FcgRIIa H (human, UniProt P12318 34-217).
T3 construct: extracellular domain; also called FcγRIIa H; FcγRIIa type H
T3 sequence (looked up): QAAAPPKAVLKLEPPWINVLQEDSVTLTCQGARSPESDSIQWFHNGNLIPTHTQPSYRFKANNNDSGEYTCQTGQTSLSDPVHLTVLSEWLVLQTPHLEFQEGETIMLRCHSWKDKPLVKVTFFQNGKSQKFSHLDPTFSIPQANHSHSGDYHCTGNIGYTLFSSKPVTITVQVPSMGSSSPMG
As to the kind of experiment: SPR (Biacore), antibody captured, FcgR as analyte. As to the method:
as §1

The target in a further assay is T4, FcgRIa (human, UniProt P12314 16-292).
T4 construct: extracellular domain; also called FcγRIa; FcγRI
T4 sequence (P12314 16-292): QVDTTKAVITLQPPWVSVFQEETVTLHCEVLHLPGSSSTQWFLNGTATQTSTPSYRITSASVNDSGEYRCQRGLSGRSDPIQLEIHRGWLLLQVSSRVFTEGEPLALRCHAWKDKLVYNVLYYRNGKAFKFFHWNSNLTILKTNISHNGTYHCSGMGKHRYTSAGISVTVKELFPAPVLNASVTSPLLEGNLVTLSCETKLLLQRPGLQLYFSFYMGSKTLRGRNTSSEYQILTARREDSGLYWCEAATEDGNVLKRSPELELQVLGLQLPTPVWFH
Nature of the assay: SPR (Biacore), antibody captured, FcgR as analyte. On the procedure:
as §1

Another assay has as its target T5, FcgRIIIa F (human, UniProt P08637 17-208).
T5 construct: extracellular domain; polymorphic site made after J. Clin. Invest; also called FcγRIIIa F
As to the kind of experiment: SPR (Biacore), antibody captured, FcgR as analyte. As to the method: as §1

Another assay has as its target T6, FcgRIIIa V (human, UniProt P08637 17-208).
T6 construct: extracellular domain; polymorphic site made after J. Clin. Invest; also called FcγRIIIa V
As to the kind of experiment: SPR (Biacore), antibody captured, FcgR as analyte. As to the method: as §1

The next assay addresses T7, FcgRIIaR (human, UniProt P12318 34-217).
T7 construct: extracellular domain; Allotype R131; also called FcγRIIa R; FcgRIIa type R; not shown: His tag attached to the C terminus
T7 sequence (looked up): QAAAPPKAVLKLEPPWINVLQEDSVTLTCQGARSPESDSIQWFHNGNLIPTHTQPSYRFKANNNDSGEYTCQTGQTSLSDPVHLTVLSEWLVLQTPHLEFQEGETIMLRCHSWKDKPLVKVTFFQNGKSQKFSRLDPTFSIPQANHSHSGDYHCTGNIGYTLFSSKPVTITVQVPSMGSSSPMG
As to the kind of experiment: SPR (Biacore); KD of IL6R-B3/IL6R-L divided by KD of the sample.

Assay [2] concerns the target T8, FcgRIIb (human, UniProt P31994 43-217).
T8 construct: extracellular domain; also called FcγRIIb; CD32B; not shown: His tag attached to the C terminus
T8 sequence (looked up): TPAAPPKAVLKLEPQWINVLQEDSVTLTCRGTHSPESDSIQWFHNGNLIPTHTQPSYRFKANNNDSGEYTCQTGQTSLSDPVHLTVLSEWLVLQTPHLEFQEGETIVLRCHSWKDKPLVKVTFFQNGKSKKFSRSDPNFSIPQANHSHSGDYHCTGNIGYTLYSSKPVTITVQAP
The description is as above.

The target of a further assay is T9, FcgRIIaH (human, UniProt P12318 34-217).
T9 construct: extracellular domain; Allotype H131; also called FcγRIIa H; FcgRIIa type H; not shown: His tag attached to the C terminus
T9 sequence (looked up): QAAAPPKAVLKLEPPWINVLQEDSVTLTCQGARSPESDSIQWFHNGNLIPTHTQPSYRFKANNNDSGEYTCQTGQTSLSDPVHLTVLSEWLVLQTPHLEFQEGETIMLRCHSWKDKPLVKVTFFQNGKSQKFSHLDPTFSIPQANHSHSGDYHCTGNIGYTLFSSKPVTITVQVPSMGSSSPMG
The assay is described as above.

T5 sequence (P08637 17-208): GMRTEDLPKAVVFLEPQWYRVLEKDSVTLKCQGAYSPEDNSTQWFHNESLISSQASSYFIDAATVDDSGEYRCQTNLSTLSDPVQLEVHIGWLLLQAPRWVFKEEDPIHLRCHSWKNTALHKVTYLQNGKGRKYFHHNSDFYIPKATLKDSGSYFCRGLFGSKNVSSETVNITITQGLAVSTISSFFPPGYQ
T6 sequence (P08637 17-208 F176V limits assumed): as the sequence (P08637 17-208) above, with F160V counted along it

B1: H240-Kn061/H240-Hl071/L73-k0 (antibody, human IgG1, kappa)
heavy 1: QDQLVQSGAEVKKPGASVKVSCKASGFNIKDTYIQWVRQAPGQGLEWMGRIDPLRKQTKYREKFEGRVTITADTSTNTAYMELSSLRSEDTAVYYCVRSGREFDYWGQGTLVTVSSASTKGPSVFPLAPSSKSTSGGTAALGCLVKDYFPEPVTVSWNSGALTSGVHTFPAVLQSSGLYSLSSVVTVPSSSLGTQTYICNVNHKPSNTKVDKKVEPKSCDKTHTCPPCPAPEYYWGPSVFLFPPKPKDTLMISRTPEVTCVVVDVSDEDPEVKFNWYVDGVEVHNAKTKPREEQYNATYRVVSVLTVLHQDWLNGKEYKCKVSNKALPAPIEKTISKAKGQPREPQVCTLPPSRDELTKNQVSLWCLVKGFYPSDIAVEWESNGQPENNYKTTPPVLDSDGSFFLYSKLTVDKSRWQQGNVFSCSVMHEALHNHYTQKSLSLSP
heavy 2: QDQLVQSGAEVKKPGASVKVSCKASGFNIKDTYIQWVRQAPGQGLEWMGRIDPLRKQTKYREKFEGRVTITADTSTNTAYMELSSLRSEDTAVYYCVRSGREFDYWGQGTLVTVSSASTKGPSVFPLAPSSKSTSGGTAALGCLVKDYFPEPVTVSWNSGALTSGVHTFPAVLQSSGLYSLSSVVTVPSSSLGTQTYICNVNHKPSNTKVDKKVEPKSCDKTHTCPPCPAPELLGGPSVFLFPPKPKDTLMISRTPEVTCVVVDVSHEDPEVKFNWYVDGVEVHNAKTKPREEQYNSTYRVVSVLTVLHQDWLNGKEYKCKVSNDALPMPIEETISKAKGQPREPQVYTLPPSRCELTKNQVSLSCAVKGFYPSDIAVEWESNGQPENNYKTTPPVLDSDGSFFLVSKLTVDKSRWQQGNVFSCSVMHEALHNHYTQKSLSLSP
light: DIQMTQSPSSLSASVGDRVTITCRASQDIHKYIAWYQQKPGQAPRLLIQYTSTLQPGVPSRFSGSGSGTDYTFTISSLQPEDIATYYCLQYEQLRTFGGGTKVEIKRTVAAPSVFIFPPSDEQLKSGTASVVCLLNNFYPREAKVQWKVDNALQSGNSQESVTEQDSKDSTYSLSSTLTLSKADYEKHKVYACEVTHQGLSSPVTKSFNRGEC
notes: Heterodimerized: L234Y/L235Y/G236W/H268D/S298A in the knob chain, K326D/A330M/K334E in the hole chain
The Kd is a measure of binding affinity in units of concentration. Read a high Kd as weaker binding. B1: the Kd was 350 nM in the assay with FcgRIIa R; 1200 nM in the assay with FcgRIIb [1]; 280 nM in the assay with FcgRIIa H; 0.14 nM with FcgRIa; 5.1 nM in the assay with FcgRIIIa F; 1.8 nM with FcgRIIIa V.

B2: IL6R-BP253/IL6R-L (antibody, human IgG1, kappa)
heavy: QVQLQESGPGLVKPSETLSLTCAVSGHSISHDHAWSWVRQPPGEGLEWIGFISYSGITNYNPSLQGRVTISRDNSKNTLYLQMNSLRAEDTAVYYCARSLARTTAMDYWGEGTLVTVSSASTKGPSVFPLAPSSKSTSGGTAALGCLVKDYFPEPVTVSWNSGALTSGVHTFPAVLQSSGLYSLSSVVTVPSSSLGTQTYICNVNHKPSNTKVDKKVEPKSCDKTHTCPPCPAPELLGGPSVFLFPPKPKDTLMISRTPEVTCVVVDVEHEDPEVKFNWYVDGVEVHNAKTKPREEQYNSTYRVVSVLTVLHQDWLNGKEYKCKVSNKAFPAPIEKTISKAKGQPREPQVYTLPPSRDELTKNQVSLTCLVKGFYPSDIAVEWESNGQPENNYKTTPPVLDSDGSFFLYSKLTVDKSRWQQGNVFSCSVMHEALHNHYTQESLSLSP
light: not shown
notes: Homodimer
As for B2, the “relative KD” value is 480 in the assay with FcgRIIaR, 349 in the assay with FcgRIIb [2] and 0.9 with FcgRIIaH.
